Laboratory results reported in patent publication US20250011363A1, “OPTIMIZED SHORTENED PEPTIDE THAT BINDS TO ACETYLCHOLINE RECEPTOR, AND USE THEREOF” (SKINMED CO., LTD., priority 2021, published 2025).

These substances were tested against acetylcholine receptor (Homo sapiens, UniProt P02708) (assay: SPR binding affinity (RU) of optimized 5mer/6mer/7mer peptides, Examples 6-7). Conditions: 6mer-1 Top sequence; SPR; peptides tested at 10 μM.
Sequence of acetylcholine receptor (P02708 21-457): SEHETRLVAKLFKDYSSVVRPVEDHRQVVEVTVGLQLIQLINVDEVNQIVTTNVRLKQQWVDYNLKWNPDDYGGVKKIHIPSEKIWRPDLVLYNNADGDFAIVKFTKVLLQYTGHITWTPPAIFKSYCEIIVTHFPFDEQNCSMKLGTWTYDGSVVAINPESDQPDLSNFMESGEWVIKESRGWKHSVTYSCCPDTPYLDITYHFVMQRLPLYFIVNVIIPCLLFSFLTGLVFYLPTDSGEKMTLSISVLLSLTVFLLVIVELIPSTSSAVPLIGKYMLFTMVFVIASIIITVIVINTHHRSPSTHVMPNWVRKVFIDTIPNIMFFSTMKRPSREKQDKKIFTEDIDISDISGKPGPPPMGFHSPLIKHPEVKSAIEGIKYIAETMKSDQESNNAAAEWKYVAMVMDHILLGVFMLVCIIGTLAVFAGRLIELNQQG
Summary of the method: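 SPR, peptides at 10 μM; read-out = response units (RU). Sequences drawn from top- or bottom-frequency amino acid combinations, 5mer/6mer-1/6mer-2 libraries.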
Substance 6mer-1-392 (RRVQTR) has a Binding affinity of 135 Ru. For 6mer-1-401 (RRLYCR), the Binding affinity was 127 Ru. For 6mer-1-262 (RKQLQR), the Binding affinity was 139 Ru. 6mer-1-400 (KRWQTK) was tested, and the Binding affinity was 123 Ru. For 6mer-1-333 (RKRQSR), the Binding affinity was 135 Ru. In the case of 6mer-1-331 (RKRITR), the Binding affinity is reported as 128 Ru. Work on 6mer-1-376 (RRQLRK) yielded a Binding affinity of 121 Ru. For 6mer-1-350 (KKLQTK), the Binding affinity was 153 Ru. With 6mer-1-249 (RKGVSR) the Binding affinity was 142 Ru.

Same assay, conditions: 6mer-2 Top sequence; SPR; peptides tested at 10 μM
With 6mer-2-128 (KSYYRR) the Binding affinity was 147 Ru. With 6mer-2-110 (KSQLKK) the Binding affinity was 153 Ru. With 6mer-2-98 (RRQQRR) the Binding affinity was 148 Ru. Substance 6mer-2-65 (KGVCKR) has a Binding affinity of 148 Ru. Substance 6mer-2-2 (RWYLKR) has a Binding affinity of 139 Ru. In the case of 6mer-2-173 (RQQCKK), the Binding affinity is reported as 127 Ru. Work on 6mer-2-116 (KLQRKK) yielded a Binding affinity of 126 Ru. 6mer-2-119 (RSISKK) was tested, and the Binding affinity was 139 Ru.

Same assay, conditions: SPR, Resonance Units; 5mer Bottom sequence (bottom combinations); peptides tested at 10 μM
In the case of 5mer-945 (RYEKR), the Binding affinity is reported as 23 Ru. 5mer-756 (RCDWR) showed a Binding affinity of 18 Ru. For 5mer-709 (RHTIR), the Binding affinity was 27 Ru. In the case of 5mer-935 (RETFK), the Binding affinity is reported as 32 Ru. In the case of 5mer-1085 (RTTER), the Binding affinity is reported as 14 Ru. 5mer-783 (KCKVR) gave a Binding affinity of 29 Ru. Substance 5mer-1064 (KCMKR) has a Binding affinity of 20 Ru. 5mer-801 (KFHGR) was tested, and the Binding affinity was 20 Ru. Work on 5mer-1080 (RYTHK) yielded a Binding affinity of 25 Ru. For 5mer-703 (KPNWR), the Binding affinity was 22 Ru. 5mer-910 (RPCFR) gave a Binding affinity of 17 Ru.

Same assay, conditions: SPR, Resonance Units; peptides tested at 10 μM; 6mer-1 Bottom sequence
Work on 6mer-1-1169 (RKMDIR) yielded a Binding affinity of 32 Ru. With 6mer-1-1069 (KKIWAR) the Binding affinity was 23 Ru. 6mer-1-1029 (RRCMAK) gave a Binding affinity of 40 Ru. 6mer-1-1002 (KRIHMK) gave a Binding affinity of 29 Ru. 6mer-1-1093 (RRKSDR) showed a Binding affinity of 37 Ru. 6mer-1-1057 (KRKPVR) gave a Binding affinity of 43 Ru. Work on 6mer-1-1174 (RKDAIR) yielded a Binding affinity of 30 Ru. Work on 6mer-1-1190 (KKCMKR) yielded a Binding affinity of 29 Ru. Work on 6mer-1-1017 (KRANMK) yielded a Binding affinity of 37 Ru.

Same assay, conditions: SPR, Resonance Units; peptides tested at 10 μM; 6mer-1 Bottom sequence (Table 11)
In the case of 6mer-1-666 (KKAANK), the Binding affinity is reported as 18 Ru. 6mer-1-719 (KKDAEK) gave a Binding affinity of 27 Ru. Substance 6mer-1-644 (RKTWFR) has a Binding affinity of 31 Ru. Substance 6mer-1-701 (RRKTWR) has a Binding affinity of 13 Ru. Substance 6mer-1-785 (KKTCER) has a Binding affinity of 19 Ru. 6mer-1-655 (RKNMFR) gave a Binding affinity of 12 Ru. Work on 6mer-1-642 (KKYNGK) yielded a Binding affinity of 24 Ru. 6mer-1-783 (KKNEFK) showed a Binding affinity of 29 Ru. Substance 6mer-1-650 (RRCNNR) has a Binding affinity of 18 Ru. 6mer-1-712 (KKPSNK) gave a Binding affinity of 24 Ru. In the case of 6mer-1-637 (RRFEFK), the Binding affinity is reported as 33 Ru.

Same assay, conditions: SPR, Resonance Units; peptides tested at 10 μM; 6mer-2 Bottom sequence
6mer-2-653 (KIEMKR) showed a Binding affinity of 20 Ru. 6mer-2-620 (RHTGRR) gave a Binding affinity of 33 Ru. 6mer-2-928 (KFCIRR) gave a Binding affinity of 28 Ru. For 6mer-2-987 (RCHPKK), the Binding affinity was 22 Ru. 6mer-2-897 (RPAHKK) showed a Binding affinity of 17 Ru. 6mer-2-946 (KPCEKK) was tested, and the Binding affinity was 21 Ru. For 6mer-2-649 (KFDVRK), the Binding affinity was 31 Ru. With 6mer-2-698 (KCEDKK) the Binding affinity was 27 Ru. 6mer-2-727 (RDMIKR) gave a Binding affinity of 11 Ru. Substance 6mer-2-890 (RDNPKR) has a Binding affinity of 30 Ru. 6mer-2-894 (RFHWRR) showed a Binding affinity of 22 Ru. With 6mer-2-854 (RCNWKR) the Binding affinity was 23 Ru. In the case of 6mer-2-776 (RFPWRK), the Binding affinity is reported as 12 Ru.

Same assay, conditions: SPR, Resonance Units; peptides tested at 10 μM; 6mer-2 Top sequence
6mer-2-408 (KQIYRR) gave a Binding affinity of 139 Ru. Work on 6mer-2-547 (RWQCKR) yielded a Binding affinity of 135 Ru. Substance 6mer-2-458 (RRFQRR) has a Binding affinity of 122 Ru. 6mer-2-536 (RWQRKK) gave a Binding affinity of 125 Ru. Substance 6mer-2-469 (RLRTKK) has a Binding affinity of 153 Ru. Substance 6mer-2-578 (RSVLRK) has a Binding affinity of 135 Ru. 6mer-2-462 (KQICKR) showed a Binding affinity of 145 Ru. Work on 6mer-2-435 (RWVYKR) yielded a Binding affinity of 154 Ru. In the case of 6mer-2-448 (RSFRRR), the Binding affinity is reported as 128 Ru. Substance 6mer-2-445 (RLVCKR) has a Binding affinity of 145 Ru. 6mer-2-440 (KQLSKK) gave a Binding affinity of 153 Ru. 6mer-2-470 (RLRRRK) was tested, and the Binding affinity was 153 Ru. With 6mer-2-514 (KGLQKK) the Binding affinity was 124 Ru. 6mer-2-599 (RRRYRK) gave a Binding affinity of 121 Ru. Substance 6mer-2-467 (KQYSRR) has a Binding affinity of 142 Ru.

Same assay, conditions: SPR, Resonance Units; peptides tested at 10 μM; 6mer-2 Top sequence (Table 12)
Work on 6mer-2-365 (RWRYRR) yielded a Binding affinity of 121 Ru. 6mer-2-390 (KWLRRR) showed a Binding affinity of 145 Ru. 6mer-2-269 (KWVQRK) showed a Binding affinity of 123 Ru. Work on 6mer-2-396 (KWLQRR) yielded a Binding affinity of 122 Ru. Substance 6mer-2-306 (RQFQKR) has a Binding affinity of 141 Ru. Work on 6mer-2-217 (KLFQKK) yielded a Binding affinity of 135 Ru. With 6mer-2-303 (KVFTKR) the Binding affinity was 126 Ru. With 6mer-2-361 (RSFQRR) the Binding affinity was 153 Ru.

Same assay, conditions: SPR, peptides at 10 μM; 6mer-2 Bottom sequence
Substance 6mer-2-1099 (REDWRR) has a Binding affinity of 21 Ru. In the case of 6mer-2-1166 (KCSIKK), the Binding affinity is reported as 26 Ru. Work on 6mer-2-1063 (RFNVRK) yielded a Binding affinity of 24 Ru. Substance 6mer-2-1185 (RIDAKK) has a Binding affinity of 42 Ru. 6mer-2-1038 (KHWERK) gave a Binding affinity of 33 Ru. 6mer-2-1121 (KPSKRR) was tested, and the Binding affinity was 21 Ru. Work on 6mer-2-1053 (KEMGKK) yielded a Binding affinity of 34 Ru. Substance 6mer-2-1132 (RPWERR) has a Binding affinity of 32 Ru. 6mer-2-1103 (RDAWRK) was tested, and the Binding affinity was 42 Ru. 6mer-2-1169 (KICERK) gave a Binding affinity of 21 Ru. 6mer-2-1176 (RYTEKK) was tested, and the Binding affinity was 43 Ru. For 6mer-2-1141 (KCTGKR), the Binding affinity was 32 Ru.

Same assay, conditions: SPR, peptides tested at 10 μM; 5mer Top sequence
In the case of 5mer-332 (RRYCR), the Binding affinity is reported as 85 Ru. 5mer-25 (KVVYK) was tested, and the Binding affinity was 60 Ru. 5mer-5 (KLFLR) gave a Binding affinity of 54 Ru. Work on 5mer-147 (RRYQK) yielded a Binding affinity of 66 Ru. In the case of 5mer-137 (KGVSK), the Binding affinity is reported as 77 Ru. 5mer-172 (RSRRR) was tested, and the Binding affinity was 82 Ru. 5mer-414 (KVRCK) showed a Binding affinity of 71 Ru. With 5mer-501 (KLQRK) the Binding affinity was 78 Ru. Substance 5mer-447 (KGYYK) has a Binding affinity of 76 Ru. For 5mer-426 (RRVSR), the Binding affinity was 57 Ru. In the case of 5mer-309 (KVQYR), the Binding affinity is reported as 70 Ru. Substance 5mer-503 (KRVSK) has a Binding affinity of 61 Ru. 5mer-167 (KQFRK) was tested, and the Binding affinity was 64 Ru. 5mer-382 (RLRQR) was tested, and the Binding affinity was 62 Ru. 5mer-441 (KLIRK) showed a Binding affinity of 53 Ru.

Same assay, conditions: SPR, peptides tested at 10 μM; 5mer Top sequence (top combinations)
With 5mer-585 (RSVSK) the Binding affinity was 74 Ru. 5mer-238 (KQVLK) gave a Binding affinity of 58 Ru. Substance 5mer-543 (RLRLK) has a Binding affinity of 65 Ru. Work on 5mer-554 (RLLSK) yielded a Binding affinity of 65 Ru. 5mer-527 (KSVQR) was tested, and the Binding affinity was 70 Ru. 5mer-593 (KQYLK) showed a Binding affinity of 77 Ru. 5mer-248 (RWYLK) gave a Binding affinity of 63 Ru. For 5mer-534 (RRQLR), the Binding affinity was 50 Ru.

Same assay, conditions: SPR, peptides tested at 10 μM; 6mer-1 Bottom sequence (Table 11)
For 6mer-1-873 (KRIWAR), the Binding affinity was 23 Ru. Work on 6mer-1-843 (KKKTIK) yielded a Binding affinity of 28 Ru. Substance 6mer-1-945 (RKTSIK) has a Binding affinity of 31 Ru. For 6mer-1-929 (RRCDHK), the Binding affinity was 25 Ru. 6mer-1-939 (KRNDFK) gave a Binding affinity of 41 Ru. Work on 6mer-1-983 (KRPHKK) yielded a Binding affinity of 38 Ru. 6mer-1-937 (RKPTNR) showed a Binding affinity of 34 Ru. Work on 6mer-1-877 (KKPEWR) yielded a Binding affinity of 19 Ru.

Same assay, conditions: SPR, peptides tested at 10 μM; 6mer-1 Top sequence
With 6mer-1-420 (KKGQYK) the Binding affinity was 148 Ru. 6mer-1-583 (KKVLYK) gave a Binding affinity of 139 Ru. For 6mer-1-426 (KKGQYR), the Binding affinity was 131 Ru. In the case of 6mer-1-496 (RRVYQR), the Binding affinity is reported as 148 Ru. 6mer-1-599 (KKLYQR) showed a Binding affinity of 124 Ru.

Same assay, conditions: SPR, peptides tested at 10 μM; 6mer-1 Top sequence (top combinations)
6mer-1-126 (KKWIQR) was tested, and the Binding affinity was 148 Ru. With 6mer-1-182 (KRGICK) the Binding affinity was 147 Ru. Substance 6mer-1-170 (RKSFYR) has a Binding affinity of 148 Ru. Substance 6mer-1-155 (RRVRSR) has a Binding affinity of 127 Ru. 6mer-1-26 (KKRVLR) was tested, and the Binding affinity was 123 Ru.

Same assay, conditions: SPR; XRRGVRR-7mer and RRGVRRX-7mer
In the case of 3665 (RRGVRRP) [compound 3665], the “Binding affinity, values relative to the RRGVRR sequence” value is reported as 142. With 3671 (RRGVRRS) [compound 3671] the “Binding affinity, values relative to the RRGVRR sequence” value was 118.

Same assay, conditions: SPR; XRRQRR-6mer and RRQRRX-6mer
In the case of 3634 (RRQRRN) [compound 3634], the “Binding affinity, relative value to the RRQRR sequence” value is reported as 109. In the case of 3629 (RRQRRW) [compound 3629], the “Binding affinity, relative value to the RRQRR sequence” value is reported as 129.

Same assay, conditions: SPR; peptides tested at 10 μM; 5mer Bottom sequence
With 5mer-814 (RITMR) the Binding affinity was 11 Ru. In the case of 5mer-893 (RIKIK), the Binding affinity is reported as 18 Ru. Work on 5mer-862 (KKNAK) yielded a Binding affinity of 19 Ru. 5mer-1150 (KFTNR) gave a Binding affinity of 12 Ru. With 5mer-875 (KHCNK) the Binding affinity was 33 Ru. Work on 5mer-1121 (RFKVK) yielded a Binding affinity of 29 Ru. 5mer-894 (KMSPR) showed a Binding affinity of 18 Ru. 5mer-1143 (RATGK) was tested, and the Binding affinity was 19 Ru. 5mer-1195 (RHWEK) was tested, and the Binding affinity was 19 Ru.
